Laboratory results: US6638941B1, “Conformationallly constrained peptidomimetics as β-turn templates and modulators of SH3 domains” (OSI Pharmaceuticals, Inc., priority 1997, dated 2003)

What was measured:
Lyn SH3 domain = biological target: T1, Lyn SH3 domain (Homo sapiens, UniProt P07948); test: Inhibition of Lyn SH3-GST fusion protein binding to immobilized p85 proline-rich peptide, surface plasmon resonance (BIAcore); settings: Lyn SH3-GST fusion protein (1 μM) incubated with 0.01-100 μM spirolactam or non-biotinylated canonical peptide prior to injection; 25° C.; concentration behind the values not stated
T1 construct: Lyn SH3-GST fusion proteins were generated as previously described; made in house
T1 sequence (P07948 63-123 limits assumed): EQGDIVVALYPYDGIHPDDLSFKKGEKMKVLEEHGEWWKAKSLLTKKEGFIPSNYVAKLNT
Procedure: The ability of spirolactams to bind to SH3 domains was assessed by measuring their ability to inhibit the binding of cononical proline-rich peptide to purified Lyn SH3 domain. This inhibition was measured by surface plasmon resonance.
Lyn SH3-GST fusion proteins were generated as previously described (Pleiman, et al., Mol & Cellular Biol. 13(9):5877 (1993)), purified from bacterial lysates by glutathione affinity chromatography and eluted by competition. Aggregates were removed by size exclusion chromatography on Sephadex 75 (Pharmacia Biotech, Uppsala, Sweden).
Surface plasmon resonance measurements were performed on a BIAcore 2000 biosensor (BIAcore AB, Uppsala, Sweden). A synthetic canonical proline-rich peptide derived from phosphatidylinositol 3 kinase p85 (Pleiman, et al., (1994) Science 263:1609 (1994)); GGGKPRPPRPLPVAPGSS (SEQ ID NO:5) was immobilized on a prepared streptavidin coated sensor chip (Sensor Chip SA, BIAcore AB) via an N-terminal biotin moiety at a density of 0.05 pmol/mm^2. […] Dissociation was monitored during subsequent washing of the chip with running buffer for an additional 5.0 minutes. […]
To test their activity, 0.01-100 μM spirolactam or non-biotinylated canonical peptide was incubated with the fusion protein prior to injection. Data were recorded in real-time as sensorgrams and analyzed subsequently using BIA evaluation 2.0 software (BIAcore AB).

[1] = biological target: Lyn SH3-GST fusion protein; test: SPR competition, compound (0.01-100 uM) incubated with Lyn SH3-GST before injection over immobilized biotinylated p85 peptide

| Percent Binding (Relative binding affinity to SH3 domain) (Lyn SH3 domain) [%] | Percent Binding [1] [%] | Molecule |
| --- | --- | --- |
| 81 | – | Ac-GGGKPRPPRPLPVAPGSS-OH [Ac-GGGKPRPPRPLPVAP-GSS-OH, non-biotinylated canonical proline-rich peptide derived from phosphatidylinositol 3 kinase p85, reference compound] |
| – | 81 | Ac-GGGKPRPPRPLPVAPGSS-OH [Ac-…-OH] |
